Source: PMC5874051, “Gene cloning of a neutral ceramidase from the sphingolipid metabolic pathway based on transcriptome analysis of Amorphophallus muelleri” (PLoS ONE, 2018)

Substrate: CCCCCCCCCCCCC/C=C/[C@@H](O)[C@H](CO)NC(=O)CCCCCCCCCCCNc1ccc([N+](=O)[O-])c2nonc12
Assay: hydrolysis of NBD-ceramide, reverse-phase HPLC with DAD detector; Michaelis-Menten and Lineweaver-Burk
Type: biochemical, Amorphophallus muelleri
Details: 37 °C, 1 h, pH of the kinetic assay not clearly stated, labelled compound

B1: AmCDase (A. muelleri neutral ceramidase) (Amorphophallus muelleri) (protein)
chain: MEASSCSRDYKDHDGSFKIWLCVFLDLVLLNGRLVSRSSDYLVGLASYDITGPAADVNMMGYANAEQIVSGVHFRLRARAFIVAEPGGKRVAFVNLDACMASQLVTIKVLERLKTRYGDLYTAENVAISGIHTHAGPGGYLQYVTYIVTSLGFVRQSFDIIVDGIERSIIQAHDNLRPGSIIVNKGELLDAGVNRSPSAYLNNPYDERKKYSYDVDKEMTLLKFVDDEWGPVGSFNWFATHGTSMSRTNSLISGDNKGAAARFMEDWFKQKSTEPAEHDLFRSDDKLNEIPRRVSIIIPRPRENYKNFTQLASSFPATGGERVTSFLSSTQRVRSIFRQGNRPAFVSAFCQSNCGDVSPNVLGAFCIDTGRPCDFNHSTCNGKNELCYGRGPGYPDEFESTRIIGERQLKKAVDLFDTASEQIKGKVDYRHTYINFSQLKVTIPSSNGSEQVVKTCPAAMGFAFAAGTTDGPGAFDFTQGDEKGNPFWRLVRNLLKTPDKVQVECQLPKPILLDTGEMKQPYDWAPSILPLQILRIGQLVILSVPGEFSTMAGRRLRDAVKMMLTSSGNNEFDNNVHIVIAGLTNTYSQYVTTFEEYEIQRYEGASTLYGPHTLSGYIQEFKKLAAALLNKQTVEPGPAPPDLLKKQMSLLPGVVMDAAPLGFNFGDVSDDVPALSKFKEGDKVSATFWSGCPRNDLLTEGTFALVERLNGVDTWVPAYDDDDFSLRFRWSRPSKFSPYSQATIEWRIPKDAPAGVYRLRHSGATKGLIGCINHFTGTSSAFAVR
notes: Ni-NTA and Superdex 200
B1 was tested, and the Km was 34.51 µM.
